Reference: US20210221899A1 (published 2021)

T1: canine NGF (canine, UniProt Q29074 110-229 (pig entry), limits assumed)
T1 construct: The protein was secreted from CHO cells and purified; also called cNGF; canine β-NGF
T1 chain: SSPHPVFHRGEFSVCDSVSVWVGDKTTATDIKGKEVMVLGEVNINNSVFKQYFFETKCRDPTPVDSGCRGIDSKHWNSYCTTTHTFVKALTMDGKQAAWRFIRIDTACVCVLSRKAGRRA

T2: human NGF (human, UniProt P01138 122-241)
T2 construct: also called human Nerve Growth Factor; hN
T2 chain: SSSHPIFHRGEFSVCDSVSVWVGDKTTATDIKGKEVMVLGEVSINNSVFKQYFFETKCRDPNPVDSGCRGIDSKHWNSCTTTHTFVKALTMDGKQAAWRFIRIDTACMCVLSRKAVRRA


Columns and labels:
Assay in all cases: SPR (Biacore T200), 100 nM mAb on NGF chip, similarity to parent mAb
[1] = biological target: T3, rat NGF (rat, UniProt P25427 122-241)
T3 construct: also called rN
T3 sequence (P25427 122-241 limits assumed): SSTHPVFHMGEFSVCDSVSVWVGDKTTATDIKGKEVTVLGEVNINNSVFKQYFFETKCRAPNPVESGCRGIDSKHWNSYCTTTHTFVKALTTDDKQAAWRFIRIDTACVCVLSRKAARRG
How it was run: (§1)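 For each alanine substitution in heavy- or light-chain CDRs, binding to an NGF chip was measured by SPR (Biacore T200) with 100 nM antibody. The "% similarity score" is the fraction of the mutant's sensorgram points within the parent mAb's mean ±3 SD response-unit window, taken from four replicates.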

[2] = biological target: T1, canine NGF
How it was run: as §1

[3] = biological target: T2, human NGF
How it was run: as §1

Binder	Percent Similarity Score (KD on rN) [1]	Percent Similarity Score (KD on cN) [2]	Percent Similarity Score (KD on hN) [3]
can48L2VL_D52A (antibody, V domains shown, CDR scanning mutant of ZTS-842 (48L2)) VH: EVQLVESGGDLVKPGGSLRLSCVASGFTFSTYGINWVRQAPGKGLQWVAYISSGGSSTYYADPVKGRFTISRDDAKNMLYLQMNSLRAEDTAIYYCAGSRYTYAYGGGYEFHFWGQGTLVTVSS VL: QAVLNQPASVSGALGQKVTISCSGSTMDIDIFGVSWYQQLPGKAPKLLVDSAGDRPSGIPDRFSGSRSGNSGTLTITGLQAEDEADYHCQSGDSTLGALAIFGGGTHVTVL	99.9%	99.7%	100%
can48L2VL_D93A (antibody, V domains shown, CDR scanning mutant of ZTS-842 (48L2)) VH: EVQLVESGGDLVKPGGSLRLSCVASGFTFSTYGINWVRQAPGKGLQWVAYISSGGSSTYYADPVKGRFTISRDDAKNMLYLQMNSLRAEDTAIYYCAGSRYTYAYGGGYEFHFWGQGTLVTVSS VL: QAVLNQPASVSGALGQKVTISCSGSTMDIDIFGVSWYQQLPGKAPKLLVDSDGDRPSGIPDRFSGSRSGNSGTLTITGLQAEDEADYHCQSGASTLGALAIFGGGTHVTVL	99.5%	98.7%	99.9%
can48L2VL_F32A (antibody, V domains shown, CDR scanning mutant of ZTS-842 (48L2)) VH: EVQLVESGGDLVKPGGSLRLSCVASGFTFSTYGINWVRQAPGKGLQWVAYISSGGSSTYYADPVKGRFTISRDDAKNMLYLQMNSLRAEDTAIYYCAGSRYTYAYGGGYEFHFWGQGTLVTVSS VL: QAVLNQPASVSGALGQKVTISCSGSTMDIDIAGVSWYQQLPGKAPKLLVDSDGDRPSGIPDRFSGSRSGNSGTLTITGLQAEDEADYHCQSGDSTLGALAIFGGGTHVTVL	66%	19.6%	44.3%
can48L2VL_G97A (antibody, V domains shown, CDR scanning mutant of ZTS-842 (48L2)) VH: EVQLVESGGDLVKPGGSLRLSCVASGFTFSTYGINWVRQAPGKGLQWVAYISSGGSSTYYADPVKGRFTISRDDAKNMLYLQMNSLRAEDTAIYYCAGSRYTYAYGGGYEFHFWGQGTLVTVSS VL: QAVLNQPASVSGALGQKVTISCSGSTMDIDIFGVSWYQQLPGKAPKLLVDSDGDRPSGIPDRFSGSRSGNSGTLTITGLQAEDEADYHCQSGDSTLAALAIFGGGTHVTVL	99.6%	92.4%	100%
can48L2VL_G92A (antibody, V domains shown, CDR scanning mutant of ZTS-842 (48L2)) VH: EVQLVESGGDLVKPGGSLRLSCVASGFTFSTYGINWVRQAPGKGLQWVAYISSGGSSTYYADPVKGRFTISRDDAKNMLYLQMNSLRAEDTAIYYCAGSRYTYAYGGGYEFHFWGQGTLVTVSS VL: QAVLNQPASVSGALGQKVTISCSGSTMDIDIFGVSWYQQLPGKAPKLLVDSDGDRPSGIPDRFSGSRSGNSGTLTITGLQAEDEADYHCQSADSTLGALAIFGGGTHVTVL	97%	93.6%	99.3%
can48L2VL_I31A (antibody, V domains shown, CDR scanning mutant of ZTS-842 (48L2)) VH: EVQLVESGGDLVKPGGSLRLSCVASGFTFSTYGINWVRQAPGKGLQWVAYISSGGSSTYYADPVKGRFTISRDDAKNMLYLQMNSLRAEDTAIYYCAGSRYTYAYGGGYEFHFWGQGTLVTVSS VL: QAVLNQPASVSGALGQKVTISCSGSTMDIDAFGVSWYQQLPGKAPKLLVDSDGDRPSGIPDRFSGSRSGNSGTLTITGLQAEDEADYHCQSGDSTLGALAIFGGGTHVTVL	39.9%	32.9%	86.2%
can48L2VL_L96A (antibody, V domains shown, CDR scanning mutant of ZTS-842 (48L2)) VH: EVQLVESGGDLVKPGGSLRLSCVASGFTFSTYGINWVRQAPGKGLQWVAYISSGGSSTYYADPVKGRFTISRDDAKNMLYLQMNSLRAEDTAIYYCAGSRYTYAYGGGYEFHFWGQGTLVTVSS VL: QAVLNQPASVSGALGQKVTISCSGSTMDIDIFGVSWYQQLPGKAPKLLVDSDGDRPSGIPDRFSGSRSGNSGTLTITGLQAEDEADYHCQSGDSTAGALAIFGGGTHVTVL	93.2%	90%	99.9%
can48L2VL_G33A (antibody, V domains shown, CDR scanning mutant of ZTS-842 (48L2)) VH: EVQLVESGGDLVKPGGSLRLSCVASGFTFSTYGINWVRQAPGKGLQWVAYISSGGSSTYYADPVKGRFTISRDDAKNMLYLQMNSLRAEDTAIYYCAGSRYTYAYGGGYEFHFWGQGTLVTVSS VL: QAVLNQPASVSGALGQKVTISCSGSTMDIDIFAVSWYQQLPGKAPKLLVDSDGDRPSGIPDRFSGSRSGNSGTLTITGLQAEDEADYHCQSGDSTLGALAIFGGGTHVTVL	21.2%	17.5%	56.6%
can48L2VL_G53A (antibody, V domains shown, CDR scanning mutant of ZTS-842 (48L2)) VH: EVQLVESGGDLVKPGGSLRLSCVASGFTFSTYGINWVRQAPGKGLQWVAYISSGGSSTYYADPVKGRFTISRDDAKNMLYLQMNSLRAEDTAIYYCAGSRYTYAYGGGYEFHFWGQGTLVTVSS VL: QAVLNQPASVSGALGQKVTISCSGSTMDIDIFGVSWYQQLPGKAPKLLVDSDADRPSGIPDRFSGSRSGNSGTLTITGLQAEDEADYHCQSGDSTLGALAIFGGGTHVTVL	100%	100%	100%
can48L2VL_I29A (antibody, V domains shown, CDR scanning mutant of ZTS-842 (48L2)) VH: EVQLVESGGDLVKPGGSLRLSCVASGFTFSTYGINWVRQAPGKGLQWVAYISSGGSSTYYADPVKGRFTISRDDAKNMLYLQMNSLRAEDTAIYYCAGSRYTYAYGGGYEFHFWGQGTLVTVSS VL: QAVLNQPASVSGALGQKVTISCSGSTMDADIFGVSWYQQLPGKAPKLLVDSDGDRPSGIPDRFSGSRSGNSGTLTITGLQAEDEADYHCQSGDSTLGALAIFGGGTHVTVL	57.2%	47%	97.8%
can48L2VL_I101A (antibody, V domains shown, CDR scanning mutant of ZTS-842 (48L2)) VH: EVQLVESGGDLVKPGGSLRLSCVASGFTFSTYGINWVRQAPGKGLQWVAYISSGGSSTYYADPVKGRFTISRDDAKNMLYLQMNSLRAEDTAIYYCAGSRYTYAYGGGYEFHFWGQGTLVTVSS VL: QAVLNQPASVSGALGQKVTISCSGSTMDIDIFGVSWYQQLPGKAPKLLVDSDGDRPSGIPDRFSGSRSGNSGTLTITGLQAEDEADYHCQSGDSTLGALAAFGGGTHVTVL	99.6%	97.3%	100%
can48L2VL_L99A (antibody, V domains shown, CDR scanning mutant of ZTS-842 (48L2)) VH: EVQLVESGGDLVKPGGSLRLSCVASGFTFSTYGINWVRQAPGKGLQWVAYISSGGSSTYYADPVKGRFTISRDDAKNMLYLQMNSLRAEDTAIYYCAGSRYTYAYGGGYEFHFWGQGTLVTVSS VL: QAVLNQPASVSGALGQKVTISCSGSTMDIDIFGVSWYQQLPGKAPKLLVDSDGDRPSGIPDRFSGSRSGNSGTLTITGLQAEDEADYHCQSGDSTLGAAAIFGGGTHVTVL	98.4%	96.8%	99.8%
